We go through two substances from patent publication US7829082B2, “Catheter composition and uses thereof” (Genentech, Inc., priority 2001, dated 2010).

The conditions of data set [1]: 2 mg of alteplase or 10,000 U of urokinase, dwell 2 hours, up to two treatments; p=0.013; Haire et al.; cited from earlier work.
Data set [2] can be described thus: Visual inspection of alteplase diluted in NS. The class given is physicochemical. As for the experimental part: Alteplase (2 mg/vial rt-PA) was diluted to a concentration of 0.01, 0.025, 0.05, and 0.1 mg/mL final protein concentration in 0.9% NaCl (Normal Saline, NS)-containing IV bags (Baxter and/or Abbott, 250 mL). Specifically, rt-PA, protein bulk, was diluted to 1 mg/mL (50-mg vial formulation equivalent, 0.004% TWEEN 80™ surfactant) with filtered MILLI-Q™ water, or a 100-mg vial rt-PA was reconstituted to 1 mg/mL (0.008-0.011% TWEEN 80™ surfactant) with Sterile Water for Injection, USP (SWFI) using a 60-cc BD syringe and an 18 G needle directly inserted into the rubber septum of the vial at the center of the cake. The vial was gently mixed by slow inversions or rolling action until the cake was totally dissolved. IV diluent (0.9% NaCl, NS) was withdrawn and replaced with the same amount of the reconstituted or diluted 1 mg/mL rt-PA as follows:
After dilution into the IV bags (n=2 for each concentration), the bags were gently mixed by inversion (about 20-24 times). A 10-mL aliquot was withdrawn from the inlet port of the IV bag using a 10-cc BD syringe and 22 G needle. An aliquot (t=0) was dispensed directly into a 20-cc Type I clear glass vial for visual inspection. […]
Each aliquot was examined under a light box equipped with a black and white background. […] The color and clarity of the aliquots were recorded accordingly.

Data set [3] concerns the target T1, in vitro clot consisting of plasminogen and fibrin (Homo sapiens, UniProt P00747+P02671+P02675+P02679).
T1 construct: Plasminogen kept frozen at or below −60° C. until use; purchased Biocell (fibrinogen); Calbiochem (thrombin)
In words: Purified clot lysis activity for rt-PA. The class given is biochemical. As for the experimental part:
(7) Purified clot lysis activity for rt-PA. […] Samples were diluted to assay range (200-1000 ng/mL) in two concentrations with diluent. Dilutions were performed the day before the assay and diluted samples were stored at 2-8° C. until analysis the next day. rt-PA reference material was diluted similarly as an internal reference.
2. Purified Clot Lysis Test (Microcentrifugal Analyzer (Test 1) and Plate Reader (Test 2)):
The potency of the alteplase t-PA protein was assessed by the purified clot lysis assay described below. Samples were diluted to assay range (200-1000 ng/mL) in three or two concentrations with diluent. Dilutions were performed the day before the assay and diluted samples were stored at 2-8° C. until analysis the next day. Rt-PA reference material was diluted similarly as an internal reference.
The assay works as follows: Reagents are substances added to a solution of another substance to participate in a chemical reaction. In this case, contents of boat 1 will react with contents of boat 2 to form a standardized clot. […] As the clot breaks apart, there is a change in the absorbance (light) characteristics. The absorbance is plotted versus time. […]
The endpoint (lysis time) may be determined by a computer program or manually. For automatic calculation by computer, the endpoint is the time required to lyse the clot, which is determined automatically. For manual endpoint determination, the endpoint is defined as the first time point below 0.03 absorbance units where the change is less than 0.003 abs unit. Specifically, for manual determination, the endpoint was determined from the absorbance time data. The first absorbance point less than 0.0300 was located. The endpoint was determined as the time of the first absorbance value less than 0.0300 if the change in absorbance between the current absorbance and the subsequent absorbance was less than 0.0030. If the delta absorbance was greater than 0.0030, one moved to the next absorbance reading and determined the delta absorbance. […]
The mean lysis time for each standard curve point was calculated. […]

T1 sequence (P00747 20-810 limits assumed): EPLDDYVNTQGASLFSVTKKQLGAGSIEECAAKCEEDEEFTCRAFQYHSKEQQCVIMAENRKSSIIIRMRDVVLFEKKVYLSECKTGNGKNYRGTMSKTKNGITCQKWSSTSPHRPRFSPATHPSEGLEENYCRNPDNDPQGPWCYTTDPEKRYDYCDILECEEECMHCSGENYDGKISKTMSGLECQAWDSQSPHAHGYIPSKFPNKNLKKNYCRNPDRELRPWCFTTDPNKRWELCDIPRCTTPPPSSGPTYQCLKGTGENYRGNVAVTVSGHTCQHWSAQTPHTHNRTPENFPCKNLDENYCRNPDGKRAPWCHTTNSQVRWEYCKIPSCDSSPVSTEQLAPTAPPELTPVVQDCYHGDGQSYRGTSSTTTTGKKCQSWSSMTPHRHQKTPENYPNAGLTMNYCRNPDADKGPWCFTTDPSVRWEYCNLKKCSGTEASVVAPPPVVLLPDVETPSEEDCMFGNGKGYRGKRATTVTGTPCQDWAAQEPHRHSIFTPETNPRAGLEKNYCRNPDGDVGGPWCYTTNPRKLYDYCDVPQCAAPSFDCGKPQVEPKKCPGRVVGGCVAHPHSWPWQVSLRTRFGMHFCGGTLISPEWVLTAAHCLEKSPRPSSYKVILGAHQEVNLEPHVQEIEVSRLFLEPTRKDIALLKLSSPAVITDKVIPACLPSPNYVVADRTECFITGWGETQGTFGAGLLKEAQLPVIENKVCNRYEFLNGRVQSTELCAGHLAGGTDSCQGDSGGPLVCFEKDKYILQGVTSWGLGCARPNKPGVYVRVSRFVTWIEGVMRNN
T1 sequence (P02671 36-629 limits assumed): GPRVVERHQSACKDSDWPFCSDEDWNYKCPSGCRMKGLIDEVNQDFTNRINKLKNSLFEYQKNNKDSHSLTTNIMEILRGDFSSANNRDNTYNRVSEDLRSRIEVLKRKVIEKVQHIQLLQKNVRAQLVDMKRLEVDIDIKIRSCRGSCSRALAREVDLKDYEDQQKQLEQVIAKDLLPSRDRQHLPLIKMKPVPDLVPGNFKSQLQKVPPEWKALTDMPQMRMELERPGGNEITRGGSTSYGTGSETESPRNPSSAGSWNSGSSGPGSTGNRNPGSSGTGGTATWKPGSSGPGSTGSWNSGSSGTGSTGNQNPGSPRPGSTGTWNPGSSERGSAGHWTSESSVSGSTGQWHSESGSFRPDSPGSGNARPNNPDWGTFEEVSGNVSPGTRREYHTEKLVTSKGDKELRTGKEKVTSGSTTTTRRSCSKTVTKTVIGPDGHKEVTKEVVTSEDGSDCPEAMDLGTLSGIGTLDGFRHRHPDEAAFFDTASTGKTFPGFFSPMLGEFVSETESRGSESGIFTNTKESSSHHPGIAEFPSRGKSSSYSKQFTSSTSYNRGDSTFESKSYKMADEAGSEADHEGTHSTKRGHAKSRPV
T1 sequence (P02675 45-491 limits assumed): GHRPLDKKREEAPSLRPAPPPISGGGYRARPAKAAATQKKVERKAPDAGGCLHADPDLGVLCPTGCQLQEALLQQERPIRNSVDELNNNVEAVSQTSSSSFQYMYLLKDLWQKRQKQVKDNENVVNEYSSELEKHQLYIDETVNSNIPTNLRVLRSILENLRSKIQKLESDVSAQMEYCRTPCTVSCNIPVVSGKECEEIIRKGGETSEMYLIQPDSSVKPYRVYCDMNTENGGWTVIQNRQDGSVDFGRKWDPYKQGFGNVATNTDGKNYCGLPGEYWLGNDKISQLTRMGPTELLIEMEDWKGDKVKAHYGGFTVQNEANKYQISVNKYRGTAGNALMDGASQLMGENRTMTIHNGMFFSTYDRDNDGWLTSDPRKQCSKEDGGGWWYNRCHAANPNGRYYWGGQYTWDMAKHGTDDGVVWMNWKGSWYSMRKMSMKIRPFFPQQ
T1 sequence (P02679 27-437 isoform P02679-2 limits assumed): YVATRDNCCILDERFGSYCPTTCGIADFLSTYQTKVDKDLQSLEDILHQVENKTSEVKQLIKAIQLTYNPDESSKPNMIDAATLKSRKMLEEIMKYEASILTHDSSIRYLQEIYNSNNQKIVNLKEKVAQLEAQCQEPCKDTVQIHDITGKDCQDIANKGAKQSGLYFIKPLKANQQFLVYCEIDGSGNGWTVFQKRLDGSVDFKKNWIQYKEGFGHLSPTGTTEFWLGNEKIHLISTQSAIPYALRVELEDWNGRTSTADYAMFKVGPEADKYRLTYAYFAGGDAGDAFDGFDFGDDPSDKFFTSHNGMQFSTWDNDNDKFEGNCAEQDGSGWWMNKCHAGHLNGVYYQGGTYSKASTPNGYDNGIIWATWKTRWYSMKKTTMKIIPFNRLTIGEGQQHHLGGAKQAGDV

For the substance urokinase, the “Catheters with function restored” value in data set [1] is reported as 59%.

“alteplase t-PA: tissue plasminogen activator in a native form such as ACTIVASE® alteplase t-PA; in Example 7 diluted in 0.9% NaCl”: the “Catheters with function restored” value in data set [1] is 89%. Moreover, the Visual inspection entry in data set [2] (0.1 mg/mL in NS, immediately after dilution and throughout the infusion period) is “slightly cloudy solution”; in data set [2] (diluted to 0.01, 0.025, and 0.05 mg/mL with NS, initially and after 24 hours of infusion (no filter) at room temperature) it was “colorless, clear to slightly opalescent solutions”. Further, the “Lytic activity in clot lysis effectiveness test” value in data set [3] (diluted down to 0.01 mg/mL in normal saline) is given as “lytically active”. For the same substance, the “Lytic activity after storage” value in data set [3] (diluted to 0.01, 0.02, and 0.05% mg/mL in 0.9% NaCl IV bags, after 24 hours of storage at ambient conditions) is “lytically active”. In addition, the “Specific activities by the clot-lysis activity assay” value in data set [3] (fractions collected over 24 hours, all concentrations in NS, in the majority of cases) is on record as “greater than 90%”.
